# Experimental data: the supplement of paper PMC9112550, “Optimization of the antimicrobial peptide Bac7 by deep mutational scanning” (BMC Biology, 2022)
# System: Escherichia coli TOP10
# Assay: shrunken log2 fold change of peptide-encoding DNA abundance (4.5 h post-induction vs induction); higher = less antimicrobial activity (less host growth inhibition)
# Conditions: time post-induction: 4.5 h; library: site-saturation at positions 5, 18, 19, 20
# 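Further: peptides expressed intracellularly from a pBAD plasmid library in pooled LB shake-flask culture, induced with 0.3% L-arabinose, DNA abundance read by NGS, three biological replicates, DESeq2 with apeglm shrinkage.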
row,Sequence,shrunken log2 fold change
1,RRIRRRPPRLPRPRPRPCTLPRP,-0.49
2,RRIRRRPPRLPRPRPRPCTVPRP,-0.0302
3,RRIRRRPPRLPRPRPRPCVAPRP,0.261
4,RRIRRRPPRLPRPRPRPCVCPRP,0.082
5,RRIRRRPPRLPRPRPRPCVEPRP,-0.0155
6,RRIRRRPPRLPRPRPRPCVHPRP,-0.0733
7,RRIRRRPPRLPRPRPRPCVPPRP,-0.149
8,RRIRRRPPRLPRPRPRPCVQPRP,0.171
9,RRIRRRPPRLPRPRPRPCWIPRP,0.063
10,RRIRRRPPRLPRPRPRPCYPPRP,-0.0837
11,RRIRRRPPRLPRPRPRPCYTPRP,-0.112
12,RRIRRRPPRLPRPRPRPDALPRP,0.23
13,RRIRRRPPRLPRPRPRPDAQPRP,0.471
14,RRIRRRPPRLPRPRPRPDCNPRP,0.311
15,RRIRRRPPRLPRPRPRPDDVPRP,0.0443
16,RRIRRRPPRLPRPRPRPDEVPRP,0.61
17,RRIRRRPPRLPRPRPRPDFFPRP,-0.00974
18,RRIRRRPPRLPRPRPRPDFRPRP,0.118
19,RRIRRRPPRLPRPRPRPDFYPRP,0.159
20,RRIRRRPPRLPRPRPRPDGHPRP,-0.0521

row,Sequence,shrunken log2 fold change
1,RRIRRRPPRLPRPRPRPDGVPRP,0.268
2,RRIRRRPPRLPRPRPRPDHFPRP,0.0408
3,RRIRRRPPRLPRPRPRPDHPPRP,0.0778
4,RRIRRRPPRLPRPRPRPDLHPRP,0.308
5,RRIRRRPPRLPRPRPRPDNNPRP,-0.187
6,RRIRRRPPRLPRPRPRPDNWPRP,0.000556
7,RRIRRRPPRLPRPRPRPDNYPRP,-0.323
8,RRIRRRPPRLPRPRPRPDPCPRP,-0.00607
9,RRIRRRPPRLPRPRPRPDPDPRP,-0.0342
10,RRIRRRPPRLPRPRPRPDPNPRP,0.0237
11,RRIRRRPPRLPRPRPRPDRHPRP,-0.0411
12,RRIRRRPPRLPRPRPRPDRRPRP,0.108
13,RRIRRRPPRLPRPRPRPDSTPRP,0.187
14,RRIRRRPPRLPRPRPRPDVDPRP,0.505
15,RRIRRRPPRLPRPRPRPDVTPRP,-0.0312
16,RRIRRRPPRLPRPRPRPDWYPRP,0.0693
17,RRIRRRPPRLPRPRPRPDYRPRP,0.0309
18,RRIRRRPPRLPRPRPRPDYYPRP,-0.0675
19,RRIRRRPPRLPRPRPRPEAWPRP,0.14
20,RRIRRRPPRLPRPRPRPECIPRP,0.282

row,Sequence,shrunken log2 fold change
1,RRIRRRPPRLPRPRPRPECNPRP,0.791
2,RRIRRRPPRLPRPRPRPECSPRP,-0.121
3,RRIRRRPPRLPRPRPRPEDEPRP,-0.0165
4,RRIRRRPPRLPRPRPRPEELPRP,0.338
5,RRIRRRPPRLPRPRPRPEIGPRP,0.244
6,RRIRRRPPRLPRPRPRPEIRPRP,0.0292
7,RRIRRRPPRLPRPRPRPEKDPRP,0.0399
8,RRIRRRPPRLPRPRPRPEKYPRP,0.135
9,RRIRRRPPRLPRPRPRPELTPRP,-0.0257
10,RRIRRRPPRLPRPRPRPEMDPRP,0.186
11,RRIRRRPPRLPRPRPRPEMKPRP,0.215
12,RRIRRRPPRLPRPRPRPEMVPRP,0.0411
13,RRIRRRPPRLPRPRPRPEMWPRP,1.14
14,RRIRRRPPRLPRPRPRPENPPRP,0.541
15,RRIRRRPPRLPRPRPRPEPAPRP,0.812
16,RRIRRRPPRLPRPRPRPEPTPRP,0.543
17,RRIRRRPPRLPRPRPRPEQDPRP,0.727
18,RRIRRRPPRLPRPRPRPERTPRP,0.232
19,RRIRRRPPRLPRPRPRPETMPRP,-0.0309
20,RRIRRRPPRLPRPRPRPEVCPRP,0.793
